Experimental data from patent publication US5456909A, “Glycoform fractions of recombinant soluble complement receptor 1 (sCR1) having extended half-lives in vivo” (T Cell Sciences, Inc., priority 1992, dated 1995).
Values joined by “and” are separate entries in the source; they are usually repeats but may differ in a detail not shown here. Equal entries are not always repeated.

Experiments:
[1] = Isoelectric point by chromatofocusing (Mono P, pH 7.1 to 4.0); format: physicochemical; conditions: for pI of minor isoforms: smaller quantities / minor component
Procedure: Chromatofocusing is a method of separating isoforms of proteins according to their isoelectric point, pI, using an ion exchange column and a pH gradient created with amphoteric buffers of different pH. In this study, analysis of the TP10HD preparations was performed using a pH gradient of 7.1 to 4.0. The chromatographic resin was Mono P, Hr5/5 (Pharmacia Fine Chemicals, Piscataway, N.J.); the starting buffer was 0.025M Bis/Tris titrated to pH 7.1 with saturated iminodiacetic acid; the eluant was polybuffer 7-4 (Pharmacia Fine Chemicals, Piscataway, N.J.) diluted 1:10 (v/v) with water and adjusted to pH 4.0 with HCl; cleaning buffer was 2M NaCl in water. The experimental conditions were chosen to yield a linear pH gradient of 7.1 to 4.0 units.

[2] = test system: complement-mediated lysis of antibody coated SRBC; experiment: Inhibition of complement-mediated hemolysis of antibody-sensitized SRBC in vitro; format: cell-based, human
Procedure: (§1) SRBC presensitized with rabbit anti-SRBC antibody (Diamedix, Miami, Fla.) were mixed in a V-bottom microtiter wells (Costar, Cambridge, Mass.) with an appropriate dilution of the test plasma and an aliquot of diluted human serum as a complement source. After incubation, 37° C., 1 hour, the unlysed red cells were pelleted by centrifugation, the supernatant transferred to corresponding flat bottom microwells (Costar, Cambridge, Mass.), and absorbance at 415 nm measured. Inhibition of complement-mediated lysis of the antibody coated SRBC was measured as a reduction in the absorbance in the presence of test sample.
A range of dilutions of TP10HD or TP10HD glycoform spanning 7.8 to 1000 ng/ml was examined for each sample.

[3] = Pharmacokinetic study 3: iv TP10HD-CC in pigs, residual functional activity by hemolysis inhibition with pig complement; format: in vivo; conditions: 1 mg/kg
Procedure: Study 3: TP10HD-CC was administered as supplied to a final dose of 1 mg/kg.
In Study 3, test material was injected iv through a jugular vein cannula into piglets ranging in weight from 4.5 to 6.1 kg. Blood samples were taken via a previously implanted jugular vein cannula into syringes containing lithium heparin at a final concentration of 15 units/ml. A preinfusion sample, 10 ml, was taken at zero time and postinfusion samples, 1.0 ml, were taken at 5, 10, 15, 30, 45, 60, 120, 180, 240, 300, 360 minutes and 24 hours. Anticoagulated blood samples were centrifuged at ~3000 rpm, 4° C., 5 minutes and the platelet-poor plasma was aliquotted and stored at or below -70° C.
Plasma samples were analyzed for residual test material by an in vitro functional assay, as above, using pig rather than human complement. Pharmacokinetic half-life was calculated from the titer of the residual functional activity.
Prior to infusion with TP10HD-CC, plasma was collected from each pig to be used as a sample diluent and complement source for the hemolysis assay. Test samples were diluted a minimum of 1:50 with 0.1M Hepes, 0.15M NaCl, pH 7.4 buffer. For greater dilution, test samples were diluted with preinfusion plasma already diluted 1:50 in the same buffer, thereby maintaining the final plasma concentration at 1:50. At this dilution, the degree of hemolysis was equivalent to hemolysis with human complement, as described above. Other manipulations were as described above. Standard curves with known quantities of TP10HD can be used to calibrate the assay so that results can be expressed as μg/ml TP10HD remaining in the plasma versus time.
The pharmacokinetic parameters for clearance rate, compartment volume, rate constants and half-life were obtained by fitting the data for each pig to two and three compartment models. […] These phases represent 69% and 31% respectively of the given dose such that approximately one-third of the dose was cleared slowly.

[4] = Pharmacokinetic studies 1, 4, 5, 7, 9: iv clearance of 125I-labelled TP10HD preparations in rats; format: in vivo, Sprague-Dawley rats
Procedure: In Studies 1, 2, 4, 5, 7 and 9, Iodination was carried out by the chloramine-T procedure. Sodium phosphate buffer, 0.5M, pH 7.6, 50 μl, was added to 1 mCi of Na-^125 I (New England Nuclear, Boston, Mass.) as supplied. The sample of TP10HD, typically 100 μg in 100 μl (Study 5=69 μg; Study 7=34 μg; Study 9=91 μg), was added followed by 50 μl of a 15 mg/ml solution of freshly prepared chloramine-T. The reaction mixture was vigorously shaken for 60 seconds. Sodium metabisulfite (50 μl, 15 mg/ml) and sodium iodide (100 μl, 10 mg/ml) were successively pipetted into the reaction vial. The reaction mixture was passed onto a PD10 column (Pharmacia Fine Chemicals, Piscataway, N.J.), pre-equilibrated with phosphate buffered saline, pH 7.2-7.4, containing 0.1% bovine serum albumin (Sigma Chemical Company, St. Louis, Mo.). Ten 0.5 ml fractions were collected and 2 μl aliquots were counted directly and after combining with 100 μl of a 0.1% bovine serum albumin solution and 1 ml of 20% trichloroacetic acid. After incubation at 0° C. for 1 hour, the acid-precipitable protein associated radioactivity was collected by centrifugation for 10 minutes at 1000×g and quantitated by scintillation counting. Fractions containing >90% of the total radioactivity in the acid precipitate were pooled for further use.
Study 1: Radioiodinated TP10HD-CX was mixed with purified unlabeled TP10HD-CX to yield a dosing solution suitable for administering a 1 mg/kg total TP10HD dose containing 16-25×10^6 cpm of radiolabeled TP10HD-CX.
Study 4: Radioiodinated TP10HD-CC was mixed with purified unlabeled TP10HD-CC to yield a dosing solution suitable for administering a 1 mg/kg or a 3 mg/kg total TP10HD dose containing ~20×10^6 cpm.
Study 5: Radioiodinated TP10HD-CCW was mixed with purified unlabeled TP10HD-CCW to yield a dosing solution suitable for administering a 1 mg/kg total TP10HD dose containing ~20×10^6 cpm.
Study 7: Radiolabeled TP10HD-CCS was mixed with purified unlabeled TP10HD-CCS to yield a dosing solution suitable for administering a 1 mg/kg total TP10HD dose containing ~20×10^6 cpm.
Study 9: Radioiodinated TP10HD-CXD was mixed with purified unlabeled TP10HD-CXD to yield a dosing solution suitable for administering a 1 mg/kg total TP10HD dose containing ~20~10^6 cpm.
In Studies 1, 4, 5, 7 and 9, test material was injected intravenously (iv) into four Sprague-Dawley rats (2 male, 2 female). Blood samples were obtained from the retroorbital plexus at 1, 3, 5, 10, 20, 30, 45, and 60 minutes post injection, and the radioactivity determined. Additional post infusion blood samples were taken at 2, 3, and 4 hours postinjection (STUDY 4) and at 120 minutes (STUDY 5). The plasma fraction of the remaining blood sample was retained for further analysis.
Plasma samples were analyzed for residual test material by measuring:
(1) total residual radioactivity;
(2) percentage of radiolabeled material precipitated with TCA;
(3) residual acid precipitable radioactivity in the presence of SDS; and
(4) material immunologically identifiable in an enzyme immunoassay as TP10HD.
Radioisotope data was quantitated as total cpm/ml blood or plasma and as the percentage of a theoretical time zero value. Pharmacokinetic half-life was calculated from the radiometric data.
In Study 9, removal of N-linked oligosaccharide chains was performed by n-glycanase digestion, performed according to manufacturer's instructions (Genzyme Corporation, Boston, Mass.). Typically, 58 μg TP10HD-CX was incubated with 10.5 units of n-glycanase for 18 hours, 37° C., in 0.2M sodium phosphate, pH 8.6 buffer.
Precipitation with trichloroacetic acid was performed as follows: Plasma (20 μl) was precipitated by sequential addition of 450μl of 0.13M Tris HCl, 4% SDS, 10% glycerol, pH 6.8 buffer, followed by 30 μl of fetal bovine serum and 500μl of 20% trichloroacetic acid. […]

[5] = Pharmacokinetic study 2: iv TP10HD-CX in rabbits, residual functional activity by hemolysis inhibition; format: in vivo, Dutch rabbits; conditions: for Peak (t = O) conc / Serum half-life / Total Clearance / Volume of Distribution: iv, 1 mg/kg
Procedure: Study 2: Radioiodinated TP10HD-CX, ~5% w/w, was mixed with purified TP10HD-CX to yield a dosing solution containing 1 mg/ml TP10HD-CX in 0.1M Hepes, 0.15M NaCl, pH 7.4 buffer.
In Study 2, test material was injected iv into two groups of five male Dutch rabbits (approximately 1 kg) at a dose of 1 mg/kg. Blood samples, 2 ml, were taken from an ear artery immediately pre-dosing and at 5, 10, 20, 45, 60, 120, and 180 minutes, and mixed with heparin (final concentration 25 μg/ml). Radioactivity was determined in an aliquot by scintillation counting, and the plasma, obtained by centrifugation at 2000×g for 5 minutes, was stored at -40° C.
Plasma samples were analyzed for residual test material by an in vitro functional assay, inhibition of hemolysis of antibody coated sheep red blood cells (SRBC) by human complement. Pharmacokinetic half-life was calculated from the titer of the residual functional activity.
Rabbit plasma samples were heated at 56° C. for 1 hour in the presence of methylamine (12.5 mM) in order to amidate thioester groups and to inactivate endogenous complement components C3 and C4. […] Test samples were then diluted 1:50 with 0.1 Hepes, 0.15M NaCl, pH 7.4 buffer and assayed.
as §1, with “sample. Standard curves with known quantities of TP10HD can be used to calibrate the assay so that results can be expressed as mg/ml TP10HD remaining in the plasma versus time.” for “sample.”

[6] = in vivo
Procedure: Plasma pharmacokinetic half-lives and/or clearance rates of different glycoform preparations were determined.

[7] = test system: post-ischemic myocardial inflammation and necrosis; conditions: in vivo; cited from earlier work
[8] = test system: reversed passive Arthus reaction; conditions: in vivo; cited from earlier work
[9] = in vivo; cited from earlier work
[10] = SRBC, human serum as complement source

## TP10HD-CC: TP10HD produced by cells cultured in a fluidized bed perfusion bioreactor and purified by combination chromatography
[1]; chromatofocusing
  pI of dominant isoforms: 5.1 and 4.8
  pI of minor isoforms: 5.7
[1]; peak integration
  proportion of preparation with pI <4.9: approximately 40%
[2]; [10]
  IH50 (concentration giving 50% inhibition of hemolysis): about 50±3 ng/ml
[2]; from IH50 of TP10HD-CX and TP10HD-CC
  potency relative to the strongly cationic glycoform (fold lower): approximately 2 fold
[2]; in vitro
  antihemolytic potency comparison, in words: no basis for concluding that TP10HD-CC, TP10HD-CCW and TP10HD-CCS differ in their potency
[3]
  % of given dose represented by α-phase: 69%
  % of given dose represented by β-phase: 31%
  Peak (t = O) concentration: 29.3 µg/mL
  Total Clearance: 0.24 mL/min/kg
  Volume of Distribution, α-phase: 0.036 L/kg
  Volume of Distribution, β-phase: 0.073 L/kg
[3]; 24 hours
  plasma level 24 hours after dosing: not distinguishable from control levels
[3]; mean of 8 animals
  Serum half-life, α-phase: 8.3 min
  Serum half-life, β-phase: 360 min and 363 min
[3]; two-compartment model
  mean half-life, β-phase: 360 min
[4]; 1 mg/kg
  α phase half-life: 9.2 min
  β phase half-life: 181.1 min
[4]; 3 mg/kg
  α phase half-life: 9.8 min
  β phase half-life: 267.1 min

## TP10HD-CX: TP10HD produced by cells cultured in a hollow fiber bioreactor and purified by HPLC cation exchange chromatography
[1]; chromatofocusing
  average pI, in words: higher average pI than TP10HD-CC
  pI of minor isoforms: ≤ 5.0
[2]; [10]
  IH50 (concentration giving 50% inhibition of hemolysis): 20 ± 7 ng/mL
[5]; Study 2, iv, 1 mg/kg (Table 3 summary)
  α phase half-life: 9 to 11 min
[5]; Group 1
  Peak (t = O) conc: 16.5 ± 2.4 µg/mL
  Serum half-life: 9.1 ± 1.4 min
  Total Clearance: 5.8 ± 1.2 mL/min/kg
  Volume of Distribution: 0.067 ± 0.009 L/kg
[5]; Group 2
  Peak (t = O) conc: 23.7 ± 1.7 µg/mL
  Serum half-life: 11.1 ± 1.2 min
  Total Clearance: 2.9 ± 0.1 mL/min/kg
  Volume of Distribution: 0.0446 ± 0.0037 L/kg
[4]; 1 mg/kg
  α phase half-life: 4.3 min
  β phase half-life: 167 min

## TP10HD-CXD: TP10HD-CX enzymatically deglycosylated with n-glycanase
[6]
  plasma half-life / clearance, in words: cleared rapidly
[2]; comparison before and after deglycosylation
  IH50 (concentration giving 50% inhibition of hemolysis): 40 ng/mL
[4]; 1 mg/kg
  α phase half-life: < 1 min
  β phase half-life: 6.1 min

## sCR1/pBSCR1c: soluble CR1 construct containing LHR-A, LHR-B, LHR-C, LHR-D, SCR29, SCR30 regions up to and including the first alanine residue of the transmembrane region
[7]
  post-ischemic myocardial inflammation and necrosis: suppressed post-ischemic myocardial inflammation and necrosis
[8]
  activity in reversed passive Arthus reaction: demonstrated in vivo activity
[9]
  survival rates following transplantation: extended survival rates following transplantation
